According to patent US20230287109A1:
pKd: −log10 of the molar value.

Experiments:
rabbit VEGF (rabbit) = rabbit VEGF (rabbit) (UniProt G1T1L9); assay: SPR, summary table, column Rabbit VEGF, Kd [M]
[1] = biological target: recombinant human VEGF (human) (UniProt P15692); assay: cell-based or functional assay
recombinant human VEGF (human), sequence (P15692 other isoform, or with tags, fused parts or gaps limits assumed): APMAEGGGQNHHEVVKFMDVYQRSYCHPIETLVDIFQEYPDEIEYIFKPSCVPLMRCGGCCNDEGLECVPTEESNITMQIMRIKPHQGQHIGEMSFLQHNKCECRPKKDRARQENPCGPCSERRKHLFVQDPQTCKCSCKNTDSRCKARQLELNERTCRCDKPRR

pKd (rabbit VEGF (rabbit)): 8.85
IC50, VEGF reporter assay (KDR/NFAT-RE HEK293 cells, luminescence) [1]: 0.75 nM
Substance: aflibercept (Fc fusion)
